By EC50 is commonly meant the midpoint of the concentration-response curve. As a reminder, the koff is the rate constant with which the complex falls apart. By kon is commonly meant a measure of how fast the partners come together. The EC50 (read off the curve) is the concentration needed to bring the measured effect to its halfway point.

This note sets out measurements from US20170129959A1 (OSE IMMUNOTHERAPEUTICS, published 2017).

Positions count from the first letter of the chain named. In names and notes the source's numbering stands. Several values for one entry are separate records, joined by “and”; a condition that tells them apart may be missing. Equal entries are not always repeated. Where only a bound is given, the exact number is not on record here.

Assay [1] has as its target T1, Recombinant hCD127 (Sino Biologicals, reference 10975-H08H) (human, UniProt P16871 21-239).
T1 construct: Bought protein; also called recombinant hCD127 antigen; rCD127
T1 chain: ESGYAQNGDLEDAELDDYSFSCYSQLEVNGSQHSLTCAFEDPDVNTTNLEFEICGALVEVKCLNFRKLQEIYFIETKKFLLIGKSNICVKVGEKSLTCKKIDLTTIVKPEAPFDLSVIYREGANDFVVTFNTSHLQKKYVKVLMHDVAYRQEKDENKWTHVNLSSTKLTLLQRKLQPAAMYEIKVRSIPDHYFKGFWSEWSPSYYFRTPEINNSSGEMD
Description: ELISA, recombinant hCD127 coated on plastic at 1 µg/ml, antibody titrated; printed as ED 50. The method, then:
FIG. 4. The Anti CD127 activity of the new antibody N13B2 was measured by ELISA assay using a recombinant hCD127 antigen. OD 450 nm: optical density at 450 nm. A. The CD127 binding activity of the N13B2 (full circle) was compared to the previous antibody generation (MD707-1 (empty diamond), 3 (empty triangle) and 6 (full square)). N13B2 appears as the most efficient binder in the assay. B. The CD127 activity between different N13B2 formats (rat, IgG1 (circle) or IgG4 (square)) was compared. No significant difference in binding activity was observed.
(§1) The binding activity of the anti hCD127 antibody was assessed by ELISA (Enzyme-linked immunosorbent assay). For the ELISA assay, recombinant hCD127 (Sino Biologicals, Beijing, China; reference 10975-H08H) was immobilized on plastic at 1 μg/ml and purified antibody were added to measure binding.
For orientation: An ELISA detects its analyte on a solid surface through an enzyme-linked reagent.

Assay [2] has as its target T2, Human CD127 (IL-7 receptor alpha chain) expressed on cells (human, UniProt P16871 21-459).
T2 chain: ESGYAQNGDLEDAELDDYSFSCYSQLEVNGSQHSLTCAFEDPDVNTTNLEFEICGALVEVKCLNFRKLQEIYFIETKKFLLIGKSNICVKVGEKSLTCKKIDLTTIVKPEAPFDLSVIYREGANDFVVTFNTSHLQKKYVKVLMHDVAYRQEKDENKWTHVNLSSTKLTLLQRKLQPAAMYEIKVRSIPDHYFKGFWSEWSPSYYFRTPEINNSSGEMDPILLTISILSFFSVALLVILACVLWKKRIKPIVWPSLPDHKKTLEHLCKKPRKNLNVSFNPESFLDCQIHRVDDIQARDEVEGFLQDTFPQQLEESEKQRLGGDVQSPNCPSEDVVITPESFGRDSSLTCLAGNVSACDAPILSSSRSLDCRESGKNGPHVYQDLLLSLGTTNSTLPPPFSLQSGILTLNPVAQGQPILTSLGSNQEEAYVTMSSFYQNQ
Description: cell-based or functional assay.

Assay [3] addresses T3, Recombinant CD127 Fc Chimera (10975-H03H, Sino Biological) (human, UniProt P16871 21-239).
T3 construct: Bought protein; also called hCD127-Ig; human CD127Fc; not shown: constant fragment of an immunoglobulin
T3 chain: T1 chain
Description: SPR (Biacore 3000), CD127Fc immobilised on CM5 chip, antibody injected, Bivalent analyte model; separate experiment. The protocol:
(§2) A CM5 chip (GE healthcare) was activated by injection of NHS/EDC mix for 7 min. […] The free reactive residues were inactivated by the injection of 1M ethanolamine pH8.5. […] The injection rate was set at 40 μL/min, the association was measured for 3 min and dissociation for 10 min. Between each cycle of the analysis, the chip was regenerated by injection of a solution of 5M MgCl2 for 60 s.
(In general: In SPR one partner is held on a chip, and binding of the other changes the refractive index at the surface.)

For assay [4], the target named is T2, Human CD127 (IL-7 receptor alpha chain) …. Description: cell-based or functional assay.
Assay [5] shares this target. Description: cell-based or functional assay.
Assay [6] has as its target T3, Recombinant CD127 Fc Chimera …. Description: ELISA, human CD127Fc coated, revealed with anti-human kappa antibody; printed as ED 50.
The target is the same in assay [7]. Put plainly: ELISA, coated human CD127Fc, revealed with an anti-human kappa antibody.
Assay [8] has as its target T1, Recombinant hCD127 (Sino Biologicals, …). Put plainly: ELISA on immobilised recombinant hCD127; antibody stored 7 days at -80 °C. The method, then: (§3) FIG. 15. Stability assay of humanized versus Rat anti-CD127 antibodies. Antibody concentrations was measured by ELISA after 7 days at 37° C. (Rat N13B2 wt (+) or humanized N13B2 h3 (square)) and at −80° C. (Rat N13B2 wt (X) or humanized N13B2 h3 (triangle)) and after four frost/defrost events (diamonds).
(§4) Humanized and chimeric purified N13B2-G1 were incubated at 37° C. or at −80° C. for 7 days. Two assays were used to measure stability of antibody: binding anti-CD127 by ELISA assay, and aggregate formation by gel filtration. For activity ELISA assay, recombinant hCD127 (Sino Biologicals, Beijing, China; reference 10975-H08H) was immobilized on plastic at lpg/ml and dilutions of supernatant were added to measure binding. […] For analysis of aggregate formation, sample was analysed on gel filtration chromatography column (Superdex 200, 10/300GL, GeHealthcare) to separate and evaluate aggregate and monomer from samples.

The target is the same in assay [9]. Description: ELISA on coated recombinant hCD127, anti-human kappa detection; antibody stored 7 days at -80 °C; printed as ED 50. The method, then:
as §3, §4

The target is the same in assay [10]. Description: ELISA on coated recombinant hCD127, anti-human kappa detection; antibody stored 7 days at 37 °C; printed as ED 50. The method, then:
as §3, §4

The target is the same in assay [11]. Description: ELISA on immobilised recombinant hCD127; antibody stored 7 days at 37 °C. The method, then: as §3, §4
Assay [12] concerns the target T3, Recombinant CD127 Fc Chimera …. Put plainly: SPR (Biacore 3000), CD127Fc immobilised on CM5 chip, antibody injected, Bivalent analyte model. The method, then:
FIG. 3. (A) Binding studies of rat N13B2 anti-CD127 antibody. N13B2 antibody or MD707-1 were injected on a CD127 immobilized antigen at different concentration. Resp. diff: Response difference. Time: time in sec (total duration: 20 min). Blk: blank (no antibody). The association and dissociation curves were analyzed with model “Bivalent analyte” on BIAeval 4 software.
as §2

Assay [13] addresses T1, Recombinant hCD127 (Sino Biologicals, …). Description: ELISA on immobilised recombinant hCD127. The method, then: as §1

B1: MD707-3 (rat anti-human CD127 antibody, previous generation) (antibody, V domains shown)
VH: AVHLVESGGGLVQPKESLKISCAASGFTFSNAAMYWVRQAPGKGLEWVARIRTKANNYATYYAESVKGRFTISRDDSKSMVYLQMDNVKTDDTAMYYCIVVVLTTTRDYFDYWGQGVMVTVSS
VL: DIVLTQAPLSVSVTPGESASISCRSSQSLLTVKGITSLYWFLQKPGKSPQLLIYRMSNLASGVPDRFRGSGSETDFTLKISKVETEDVGVYYCAQFLEYPHTFGAGTKLELKR
Consider B1, for which the EC50 in assay [1] was determined as 293 ng/mL. In [2], the “IC50 on P-STAT5 induced by 100 pg/ml of rhIL7” value (from here on “IC50 on P-STAT5 induced”) is 1.09 ng/mL.

B2: N13B2-G4 (chimeric N13B2, human IgG4 Fc S228P, human CL kappa) (antibody)
heavy: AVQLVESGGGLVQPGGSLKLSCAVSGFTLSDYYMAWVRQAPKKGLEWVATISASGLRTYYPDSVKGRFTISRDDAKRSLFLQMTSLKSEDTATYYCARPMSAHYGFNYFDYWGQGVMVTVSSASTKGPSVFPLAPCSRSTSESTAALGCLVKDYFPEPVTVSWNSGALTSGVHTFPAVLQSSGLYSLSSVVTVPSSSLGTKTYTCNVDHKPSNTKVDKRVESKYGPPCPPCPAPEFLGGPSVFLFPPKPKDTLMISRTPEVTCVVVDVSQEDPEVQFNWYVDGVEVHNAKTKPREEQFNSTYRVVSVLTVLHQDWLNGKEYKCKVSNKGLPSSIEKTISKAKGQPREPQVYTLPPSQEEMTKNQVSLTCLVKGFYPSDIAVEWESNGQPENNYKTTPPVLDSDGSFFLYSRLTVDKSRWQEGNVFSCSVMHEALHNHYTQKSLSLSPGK
light: DIQMTQSPASLSASLGETVTIECRTSEDIYNGLAWYQQKPGKSPQLLVYSANSLHIGVPSRFSGSGSGTQYSLKINSLQFEDVASYFCQQYYDYPLAFGSGTKLEIKRTVAAPSVFIFPPSDEQLKSGTASVVCLLNNFYPREAKVQWKVDNALQSGNSQESVTEQDSKDSTYSLSSTLTLSKADYEKHKVYACEVTHQGLSSPVTKSFNRGEC
notes: also called cN13B2-G4; N13B2-G4m
As for B2, the EC50 in [1] came out at 12.6 ng/mL. Besides, the “IC50 on P-STAT5 induced” value in assay [2] was 0.037 ng/mL. In assay [3], the Ka stood at 5.89e+09 M⁻¹, the Kd is 0.17 nM, the koff amounted to 3.41e-06 s⁻¹ and the kon worked out at 20100 M⁻¹ s⁻¹. Also, the “inhibition of STAT5 phosphorylation in human PBMC” value (“inhibition … in human PBMC” for short) in [4] was > 50 % inhibition at 50 ng/ml and > 80 % inhibition at 100 ng/ml (0.1 ng/ml IL-7) and > 90 % inhibition at 100 ng/ml (5 ng/ml IL-7).

B3: N13B2-G1 (chimeric N13B2, human IgG1 Fc E333A, human CL kappa) (antibody)
heavy: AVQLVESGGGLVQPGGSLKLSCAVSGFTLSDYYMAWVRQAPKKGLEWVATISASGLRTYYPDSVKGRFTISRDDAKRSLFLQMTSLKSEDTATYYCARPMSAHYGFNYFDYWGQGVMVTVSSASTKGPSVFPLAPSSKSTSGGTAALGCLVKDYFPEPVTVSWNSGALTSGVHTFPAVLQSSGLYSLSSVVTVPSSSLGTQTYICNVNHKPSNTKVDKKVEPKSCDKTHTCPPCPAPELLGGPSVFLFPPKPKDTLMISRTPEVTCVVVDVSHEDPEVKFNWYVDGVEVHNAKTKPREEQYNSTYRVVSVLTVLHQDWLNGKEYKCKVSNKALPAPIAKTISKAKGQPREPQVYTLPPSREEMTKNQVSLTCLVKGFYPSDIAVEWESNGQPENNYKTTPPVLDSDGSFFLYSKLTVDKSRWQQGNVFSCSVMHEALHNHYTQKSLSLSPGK
light: B2 light
notes: also called cN13B2-G1; N13B2-G1m
Turning to B3, the EC50 in assay [1] amounted to 12 ng/mL. Further, the “IC50 on P-STAT5 induced” value in assay [2] came out at 0.028 ng/mL. In assay [3], the Ka was 2.65e+09 M⁻¹, the Kd amounted to 0.377 nM, the koff was found to be 5.62e-05 s⁻¹ and the kon was determined as 149000 M⁻¹ s⁻¹. Besides, the “inhibition … in human PBMC” value in assay [4] was > 50 % inhibition at 50 ng/ml and > 80 % inhibition at 100 ng/ml (0.1 ng/ml IL-7) and > 90 % inhibition at 100 ng/ml (5 ng/ml IL-7).

B4: N13B2-h2 (humanized N13B2) (antibody, V domains shown)
VH: QVQLVESGGGLVKPGGSLRLSCAVSGFTLSDYYMAWIRQAPGKGLEWVSTISASGLRTYYPDSVKGRFTISRDNAKNSLYLQMNSLRAEDTAVYYCARPMSAHYGFNYFDYWGQGTLVTVSS
VL: EIVMTQSPATLSVSPGERATLSCRTSEDIYNGLAWYQQKPGQAPRLLIYSANSLHIGIPARFSGSGSGTEFTLTISSLQSEDFAVYYCQQYYDYPLAFGGGTKVEIK
notes: Variable regions only
Take B4: the “IC 50 of inhibition of IL7 induced P-STAT5 on T lymphocytes (0.1 ng/ml rhIL-7)” value in assay [5] was 18.7 ng/mL. In assay [6], the EC50 came out at 0.6 ng/mL.

B5: N13B2-h1 (humanized N13B2) (antibody, V domains shown)
VH: B4 VH with I37V, S49A, N74D
VL: B4 VL with I48V, F71Y, Y87F
In the case of B5, the “EC50 (read off the curve)” value in assay [7] was roughly 2 ng/mL. Further, in assay [5], the “IC 50 of inhibition of IL7 induced P-STAT5 on T lymphocytes (0.1 ng/ml rhIL-7)” value was found to be 63.8 ng/mL. For the same molecule, the EC50 in assay [6] worked out at 2.4 ng/mL.

B6: N13B2 wt (antibody, V domains shown)
VH: AVQLVESGGGLVQPGGSLKLSCAVSGFTLSDYYMAWVRQAPKKGLEWVATISASGLRTYYPDSVKGRFTISRDDAKRSLFLQMTSLKSEDTATYYCARPMSAHYGFNYFDYWGQGVMVTVSS
VL: DIQMTQSPASLSASLGETVTIECRTSEDIYNGLAWYQQKPGKSPQLLVYSANSLHIGVPSRFSGSGSGTQYSLKINSLQFEDVASYFCQQYYDYPLAFGSGTKLEIKR
notes: also called Rat N13B2 wt
For B6, the “EC50 (read off the curve)” value in [8] was roughly 3 ng/mL; in [7] it was roughly 3 ng/mL; in assay [11], roughly 4 ng/mL. For the same molecule, the EC50 is 3.6 ng/mL in assay [9], 3.5 ng/mL in assay [10] and 3 ng/mL in [6]. In addition, in assay [5], the “IC 50 of inhibition of IL7 induced P-STAT5 on T lymphocytes (0.1 ng/ml rhIL-7)” value was found to be 50.2 ng/mL.

B7: N13B2 (rat anti-human CD127 monoclonal antibody) (antibody, V domains shown)
VH: B6 VH
VL: B6 VL
notes: Rat hybridoma antibody; It was detected with anti-rat kappa; also called rat N13B2; N13B2 mAb
B7: the EC50 in assay [1] came out at 65.6 ng/mL. For the same molecule, in assay [12], the Ka amounted to 1.26e+10 M⁻¹, the Kd turned out to be 0.0796 nM, the koff was 1.6e-05 s⁻¹ and the kon stood at 201000 M⁻¹ s⁻¹. Moreover, the “IC50 on P-STAT5 induced” value in [2] amounted to 0.043 ng/mL. In addition, in assay [3], the Ka was 2.03e+10 M⁻¹, the Kd was determined as 0.0493 nM, the koff was 4.75e-06 s⁻¹ and the kon stood at 96300 M⁻¹ s⁻¹. Also, in [4], the “inhibition … in human PBMC” value was > 50 % inhibition at 50 ng/ml and > 80 % inhibition at 100 ng/ml (0.1 ng/ml IL-7) and > 90 % inhibition at 100 ng/ml (5 ng/ml IL-7). Moreover, the half-maximal effective concentration (EC50 (read off the curve)) in assay [13] is roughly 60 ng/mL.
